Source: PMC12221286, “Endogenous formation of phosphatidylhomoserine in Escherichia coli through phosphatidylserine synthase” (The Journal of Biological Chemistry, 2025)

Substrate: N[C@@H](CCO)C(=O)O
Test: purified protein
Assay type: biochemical, Escherichia coli
Conditions: 0.3 mM 18:1/18:1 CDP-DAG, 10 mM MgCl2, 0.1 M KCl, 2.4 mM Triton X-100, pH 7.5, 25 °C, apparent constants

B1: EcPssA (E. coli phosphatidylserine synthase A, PssA) (Escherichia coli K-12) (protein)
chain: MLSKFKRNKHQQHLAQLPKISQSVDDVDFFYAPADFRETLLEKIASAKQRICIVALYLEQDDGGKGILNALYEAKRQRPELDVRVLVDWHRAQRGRIGAAASNTNADWYCRMAQENPGVDVPVYGVPINTREALGVLHFKGFIIDDSVLYSGASLNDVYLHQHDKYRYDRYHLIRNRKMSDIMFEWVTQNIMNGRGVNRLDDVNRPKSPEIKNDIRLFRQELRDAAYHFQGDADNDQLSVTPLVGLGKSSLLNKTIFHLMPCAEQKLTICTPYFNLPAILVRNIIQLLREGKKVEIIVGDKTANDFYIPEDEPFKIIGALPYLYEINLRRFLSRLQYYVNTDQLVVRLWKDDDNTYHLKGMWVDDKWMLITGNNLNPRAWRLDLENAILIHDPQLELAPQREKELELIREHTTIVKHYRDLQSIADYPVKVRKLIRRLRRIRIDRLISRIL
notes: purified EcPssA in Tris/NaCl/glycerol/octyl glucoside
**Q.** Which Km does the source give for B1 here?
**A.** The Km was 4.6 ± 0.02 mM.

**Q.** And the kcat?
**A.** Its kcat is 2.86 ± 0.04 s⁻¹.
